In article doi:10.1101/2024.11.14.623549 (bioRxiv, 2024):

B3: Clathrin Light Chain (CLC), residues 1-233 (natural protein, Saccharomyces cerevisiae, UniProt P17891 1-233, looked up)
chain: MSEKFPPLEDQNIDFTPNDKKDDDTDFLKREAEILGDEFKTEQDDILETEASPAKDDDEIRDFEEQFPDINSANGAVSSDQNGSATVSSGNDNGEADDDFSTFEGANQSTESVKEDRSEVVDQWKQRRAVEIHEKDLKDEELKKELQDEAIKHIDDFYDSYNKKKEQQLEDAAKEAEAFLKKRDEFFGQDNTTWDRALQLINQDDADIIGGRDRSKLKEILLRLKGNAKAPGA
modifications: RED-NHS dye label
B4: Sla2ccRTH (Sla2 residues 351-968) (domain or fragment, Saccharomyces cerevisiae, UniProt P33338 351-968, looked up)
chain: ATAQMQPDFWANQQAQFANEQNRLEQERVQQLQQQQAQQELFQQQLQKAQQDMMNMQLQQQNQHQNDLIALTNQYEKDQALLQQYDQRVQQLESEITTMDSTASKQLANKDEQLTALQDQLDVWERKYESLAKLYSQLRQEHLNLLPRFKKLQLKVNSAQESIQKKEQLEHKLKQKDLQMAELVKDRDRARLELERSINNAEADSAAATAAAETMTQDKMNPILDAILESGINTIQESVYNLDSPLSWSGPLTPPTFLLSLLESTSENATEFATSFNNLIVDGLAHGDQTEVIHCVSDFSTSMATLVTNSKAYAVTTLPQEQSDQILTLVKRCAREAQYFFEDLMSENLNQVGDEEKTDIVINANVDMQEKLQELSLAIEPLLNIQSVKSNKETNPHSELVATADKIVKSSEHLRVDVPKPLLSLALMIIDAVVALVKAAIQCQNEIATTTSIPLNQFYLKNSRWTEGLISAAKAVAGATNVLITTASKLITSEDNENTSPEQFIVASKEVAASTIQLVAASRVKTSIHSKAQDKLEHCSKDVTDACRSLGNHVMGMIEDDHSTSQQQQPLDFTSEHTLKTAEMEQQVEILKLEQSLSNARKRLGEIRRHAYYNQDDD
B6: Sla1 SH3_3 domain (Sla1 residues 355-414) (domain or fragment, Saccharomyces cerevisiae)
chain: GAMAKKRGIVQYDFMAESQDELTIKSGDKVYILDDKKSKDWWMCQLVDSGKSGLVPAQFIEPVR
modifications: also: RED-NHS dye label, site not given here

What was measured:
[1] = target: B3; experiment: MST
[2] = target: B4; experiment: mass photometry
Sla2cc ΔSite1 (Δ515-546) = target: T1, Sla2cc ΔSite1 (Δ515-546) (Saccharomyces cerevisiae, UniProt P33338 296-767, Δ515-546); experiment: MST
T1 sequence (looked up): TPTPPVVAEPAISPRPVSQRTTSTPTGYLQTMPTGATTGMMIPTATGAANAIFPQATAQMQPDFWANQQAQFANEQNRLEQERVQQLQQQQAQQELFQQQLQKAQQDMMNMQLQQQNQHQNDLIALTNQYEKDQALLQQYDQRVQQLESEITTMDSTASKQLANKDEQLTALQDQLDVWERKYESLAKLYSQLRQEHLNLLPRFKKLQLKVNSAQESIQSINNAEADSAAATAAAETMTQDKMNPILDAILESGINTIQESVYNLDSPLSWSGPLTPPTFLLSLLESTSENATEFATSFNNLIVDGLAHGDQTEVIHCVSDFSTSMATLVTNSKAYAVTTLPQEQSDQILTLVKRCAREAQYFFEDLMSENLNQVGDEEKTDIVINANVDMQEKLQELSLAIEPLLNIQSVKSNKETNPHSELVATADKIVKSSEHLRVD

mass photometry = target: the molecule itself; experiment: mass photometry
[3] = target: B6; experiment: MST
[4] = target: T2, Sla2:270-350 (complete IDR of Sla2) (Saccharomyces cerevisiae, UniProt P33338 270-350); experiment: MST
T2 sequence (looked up): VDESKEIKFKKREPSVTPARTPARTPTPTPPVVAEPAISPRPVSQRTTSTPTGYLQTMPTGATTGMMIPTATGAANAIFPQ

B1: Sla2cc (Sla2 residues 296-767), WildType (domain or fragment, Saccharomyces cerevisiae, UniProt P33338 296-767, looked up)
chain: TPTPPVVAEPAISPRPVSQRTTSTPTGYLQTMPTGATTGMMIPTATGAANAIFPQATAQMQPDFWANQQAQFANEQNRLEQERVQQLQQQQAQQELFQQQLQKAQQDMMNMQLQQQNQHQNDLIALTNQYEKDQALLQQYDQRVQQLESEITTMDSTASKQLANKDEQLTALQDQLDVWERKYESLAKLYSQLRQEHLNLLPRFKKLQLKVNSAQESIQKKEQLEHKLKQKDLQMAELVKDRDRARLELERSINNAEADSAAATAAAETMTQDKMNPILDAILESGINTIQESVYNLDSPLSWSGPLTPPTFLLSLLESTSENATEFATSFNNLIVDGLAHGDQTEVIHCVSDFSTSMATLVTNSKAYAVTTLPQEQSDQILTLVKRCAREAQYFFEDLMSENLNQVGDEEKTDIVINANVDMQEKLQELSLAIEPLLNIQSVKSNKETNPHSELVATADKIVKSSEHLRVD
modifications: RED-NHS dye label (only in the MST against CLC:70-140 and Pan1:777-987)
[1]
  KD of Site 1 (higher affinity site): ~100 nM
  KD of Site 2 (lower affinity site): 3000 nM

B2: NusA conjugated to CLC (NusA-CLC) (natural protein, Saccharomyces cerevisiae, UniProt P17891 1-233, looked up)
chain: MSEKFPPLEDQNIDFTPNDKKDDDTDFLKREAEILGDEFKTEQDDILETEASPAKDDDEIRDFEEQFPDINSANGAVSSDQNGSATVSSGNDNGEADDDFSTFEGANQSTESVKEDRSEVVDQWKQRRAVEIHEKDLKDEELKKELQDEAIKHIDDFYDSYNKKKEQQLEDAAKEAEAFLKKRDEFFGQDNTTWDRALQLINQDDADIIGGRDRSKLKEILLRLKGNAKAPGA
[2]
  stoichiometry N: 1 NusA-CLC per Sla2 dimer

## B3
Sla2cc ΔSite1 (Δ515-546)
  binding result: binds

## B4
Mass photometry
  stoichiometry N: 2

B5: Sla2:283-297 peptide (peptide)
peptide: PVSTPARTPARTPTP
[3]
  Kd: 81200 nM

## B6
[4]
  Kd: 900 nM
